For 1 molecule, Ka results are on record in PMC4820785 (Nature Communications, 2016).

The target in the experiment is T1, Ssa1 (UniProt P10591 1-642).
T1 construct: also called a member of the Hsp70 family (Ssa1); Saa1
The experiment is described as follows: ThT aggregation kinetics, global. Conditions: both partners purified.

T1 sequence (P10591 whole entry): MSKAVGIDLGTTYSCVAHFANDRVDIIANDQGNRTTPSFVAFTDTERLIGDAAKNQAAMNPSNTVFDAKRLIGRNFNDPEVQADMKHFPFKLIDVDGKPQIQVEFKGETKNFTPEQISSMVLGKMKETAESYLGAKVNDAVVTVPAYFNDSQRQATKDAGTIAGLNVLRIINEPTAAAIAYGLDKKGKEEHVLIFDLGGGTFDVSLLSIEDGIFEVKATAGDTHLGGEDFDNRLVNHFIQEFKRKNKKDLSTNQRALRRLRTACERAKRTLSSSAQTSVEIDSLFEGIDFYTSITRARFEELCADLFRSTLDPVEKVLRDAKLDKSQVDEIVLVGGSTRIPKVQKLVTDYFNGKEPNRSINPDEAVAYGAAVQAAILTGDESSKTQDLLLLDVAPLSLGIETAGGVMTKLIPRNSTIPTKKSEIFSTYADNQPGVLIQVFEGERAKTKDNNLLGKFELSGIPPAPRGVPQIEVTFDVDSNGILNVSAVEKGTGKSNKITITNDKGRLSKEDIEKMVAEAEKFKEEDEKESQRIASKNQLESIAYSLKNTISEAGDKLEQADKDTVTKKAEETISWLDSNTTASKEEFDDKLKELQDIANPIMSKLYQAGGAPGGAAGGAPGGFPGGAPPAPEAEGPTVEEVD

B1: yeast prion protein Ure2p (natural protein, UniProt P23202 1-354, looked up)
chain: MMNNNGNQVSNLSNALRQVNIGNRNSNTTTDQSNINFEFSTGVNNNNNNNSSSNNNNVQNNNSGRNGSQNNDNENNIKNTLEQHRQQQQAFSDMSHVEYSRITKFFQEQPLEGYTLFSHRSAPNGFKVAIVLSELGFHYNTIFLDFNLGEHRAPEFVSVNPNARVPALIDHGMDNLSIWESGAILLHLVNKYYKETGNPLLWSDDLADQSQINAWLFFQTSGHAPMIGQALHFRYFHSQKIASAVERYTDEVRRVYGVVEMALAERREALVMELDTENAAAYSAGTTPMSQSRFFDYPVWLVGDKLTIADLAFVPWNNVVDRIGINIKIEFPEVYKWTKHMMRRPAVIKALRGE
notes: also called prion Ure2p
B1: the Ka turned out to be 300000 M⁻¹.
